Our source for the Kdiss, fold against MAb 5E8 values is patent US5674712.

This test deals with sub-unit alpha of human chorionic gonadotropin (human) (UniProt P01215). Nature of the test: SPR (BIACORE), alpha hCG fixed to the sensor.

B1: antibody scFv5E8 specific for sub-unit alpha of human chorionic gonadotropin (scFv)
scFv: QVQLQQSGAELMKPGASVKLTASCSGFSIKDTYMHWVKQRPEQGLEWIGRIDPANGNTKYDPKFQGKATITADTSSNTAYLQLSSLTSEDTAVYYCHRFEFAMDYWGQGTTVTVSSGGGGSGGGGSGGGGSDIQGTQSPASLVVSLGQRATISCRASKSVSASGYSYVNWYQQKPGQPPKLLIYLASNLESGVPARFSGSGSGTDFTLNIHPVEEEDAATYYCQHSRELPLTFGAGTKLEISMEELMIEGR
B1 registered a Kdiss, fold against MAb 5E8 of 300 times.
